In patent US20240066131A1 (Protagonist Therapeutics, Inc., priority 2020, published 2024):
Starred links: 1 amine or outer side, 2 acyl side, 3 side chain; linkers in the order of their positions; H or OH if unused. Positions of bridges follow the written chain, without caps; N, C: chain ends. Non-standard residues stand in square brackets, D forms with d. Groups on a side chain read outwards from the residue. *: point of attachment. Ala(1H-tetrazol-5-yl) = N[C@@H](Cc1nnn[nH]1)C(=O)O; PEG11 = NCCOCCOCCOCCOCCOCCOCCOCCOCCOCCOCCOCCC(=O)O; C18 diacid = O=C(O)CCCCCCCCCCCCCCCCC(=O)*; Dip = N[C@H](C(=O)O)C(c1ccccc1)c1ccccc1; γGlu = O=C(O)[C@H](CCC(=O)[*:2])N[*:1]; His(τ-Me) = Cn1cnc(C[C@H](N)C(=O)O)c1; Palmitoyl = CCCCCCCCCCCCCCCC(=O)*; β3hF = N[C@H](CC(=O)O)Cc1ccccc1; NMeK = CN[C@@H](CCCCN)C(=O)O; Isovaleryl = CC(C)CC(=O)*; Orn = NCCC[C@H](N)C(=O)O; Dab = NCC[C@H](N)C(=O)O; Dap = NC[C@H](N)C(=O)O; AEEA = NCCOCCOCC(=O)O; Ahx = NCCCCCC(=O)O

T1: human ferroportin (SLC40A1) fused in frame with GFP, stably expressed in HEK293 cells (human, UniProt Q9NP59 1-571)
T1 sequence (looked up): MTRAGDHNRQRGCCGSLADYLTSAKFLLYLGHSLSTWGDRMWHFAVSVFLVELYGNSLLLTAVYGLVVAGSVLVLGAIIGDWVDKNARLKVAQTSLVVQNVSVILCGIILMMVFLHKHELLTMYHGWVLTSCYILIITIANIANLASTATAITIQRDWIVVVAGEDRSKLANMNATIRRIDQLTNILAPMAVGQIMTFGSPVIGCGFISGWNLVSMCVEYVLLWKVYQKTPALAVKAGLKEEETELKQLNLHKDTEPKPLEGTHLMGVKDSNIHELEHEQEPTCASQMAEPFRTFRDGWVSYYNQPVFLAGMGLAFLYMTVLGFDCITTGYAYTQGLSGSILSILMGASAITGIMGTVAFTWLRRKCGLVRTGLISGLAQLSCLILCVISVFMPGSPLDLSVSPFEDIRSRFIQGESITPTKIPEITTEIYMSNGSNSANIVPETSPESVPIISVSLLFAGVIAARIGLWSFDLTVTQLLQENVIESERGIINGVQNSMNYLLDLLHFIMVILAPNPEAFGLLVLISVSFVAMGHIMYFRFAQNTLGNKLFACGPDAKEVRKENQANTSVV

T2: ferroportin endogenously expressed on T47D cells (HTB 133, ATCC) (human, UniProt Q9NP59 1-571)
T2 sequence (looked up): T1 sequence (looked up)

B1: Isovaleric Acid-E-T-H-[Dpa]-P-A-I-[Lys(2PEG11_Palm)]-[bhPhe]-NH2 (peptide)
peptide: Isovaleryl-ETH[Dip]PAIK([PEG11-Palmitoyl])[β3hF]-NH2
B2: Isovaleric Acid-E-T-H-[Dpa]-P-A-I-[Lys(1PEG2_1PEG2_IsoGlu_C18_Diacid)]-[bhPhe]-[(D)Lys]-NH2 (peptide)
peptide: Isovaleryl-ETH[Dip]PAIK([AEEA-AEEA-γGlu-C18 diacid])[β3hF][dK]-NH2
B3: Isovaleric Acid-E-T-H-[Dpa]-P-A-I-[Lys(IsoGlu_Palm)]-[bhPhe]-[(D)Lys]-NH2 (peptide)
peptide: Isovaleryl-ETH[Dip]PAIK([γGlu-Palmitoyl])[β3hF][dK]-NH2
SMILES: CCCCCCCCCCCCCCCC(=O)N[C@@H](CCC(=O)NCCCC[C@H](NC(=O)[C@@H](NC(=O)[C@H](C)NC(=O)[C@@H]1CCCN1C(=O)[C@@H](NC(=O)[C@H](Cc1c[nH]cn1)NC(=O)[C@@H](NC(=O)[C@H](CCC(=O)O)NC(=O)CC(C)C)[C@@H](C)O)C(c1ccccc1)c1ccccc1)[C@@H](C)CC)C(=O)N[C@H](CC(=O)N[C@H](CCCCN)C(N)=O)Cc1ccccc1)C(=O)O
B4: Isovaleric Acid-E-T-H-[Dpa]-P-A-I-[Lys(Ac)]-[bhPhe]-NH2 (peptide)
peptide: Isovaleryl-ETH[Dip]PAIK(Ac)[β3hF]-NH2
B5: Isovaleric Acid-E-T-H-[Dpa]-P-A-I-[(D)Lys]-[bhPhe]-[Lys(Ahx_Palm)]-[(D)Lys]-A-NH2 (peptide)
peptide: Isovaleryl-ETH[Dip]PAI[dK][β3hF]K([Ahx-Palmitoyl])[dK]A-NH2
SMILES: CCCCCCCCCCCCCCCC(=O)NCCCCCC(=O)NCCCC[C@H](NC(=O)C[C@H](Cc1ccccc1)NC(=O)[C@@H](CCCCN)NC(=O)[C@@H](NC(=O)[C@H](C)NC(=O)[C@@H]1CCCN1C(=O)[C@@H](NC(=O)[C@H](Cc1c[nH]cn1)NC(=O)[C@@H](NC(=O)[C@H](CCC(=O)O)NC(=O)CC(C)C)[C@@H](C)O)C(c1ccccc1)c1ccccc1)[C@@H](C)CC)C(=O)N[C@H](CCCCN)C(=O)N[C@@H](C)C(N)=O
B6: Isovaleric Acid-[Tet1]-T-[(1Me)His]-[Dpa]-P-A-I-[(N-Me)Lys]-[bhPhe]-[Lys(Ahx_Palm)]-NH2 (peptide)
peptide: Isovaleryl-[Ala(1H-tetrazol-5-yl)]T[His(τ-Me)][Dip]PAI[NMeK][β3hF]K([Ahx-Palmitoyl])-NH2
SMILES: CCCCCCCCCCCCCCCC(=O)NCCCCCC(=O)NCCCC[C@H](NC(=O)C[C@H](Cc1ccccc1)NC(=O)[C@H](CCCCN)N(C)C(=O)[C@@H](NC(=O)[C@H](C)NC(=O)[C@@H]1CCCN1C(=O)[C@@H](NC(=O)[C@H](Cc1cn(C)cn1)NC(=O)[C@@H](NC(=O)[C@H](Cc1nnn[nH]1)NC(=O)CC(C)C)[C@@H](C)O)C(c1ccccc1)c1ccccc1)[C@@H](C)CC)C(N)=O
B7: Isovaleric Acid-K-T-H-[Dpa]-P-A-I-E-[bhPhe]-[Lys(Ahx_Palm)]-R-NH2; (K and E cyclized) (peptide)
peptide: XKTHXPAIEXXR
modifications: N-term Isovaleric Acid; Dpa4; bhPhe9; Lys(Ahx_Palm)10; C-term NH2; K and E cyclized (lactam)
B8: [DiIsoAmylAmine_CH2_Acid]-T-H-[Dpa]-P-A-I-[Lys(Ahx_Palm)]-[bhPhe]-[(D)Lys]-NH2 (peptide)
peptide: DiIsoAmylAmine_CH2_Acid-TH[Dip]PAIK([Ahx-Palmitoyl])[β3hF][dK]-NH2
B9: Isovaleric Acid-E-T-H-F-P-A-I-[Lys(IsoGlu_Palm)]-F-E-P-R-S-K-G-A-K-NH2 (peptide)
peptide: Isovaleryl-ETHFPAIK([γGlu-Palmitoyl])FEPRSKGAK-NH2
B10: Isovaleric Acid-K-T-H-[Dpa]-P-A-I-E-[bhPhe]-[Lys(Ahx_Palm)]-NH2 (peptide)
peptide: Isovaleryl-KTH[Dip]PAIE[β3hF]K([Ahx-Palmitoyl])-NH2
modifications: lactam 1-8
SMILES: CCCCCCCCCCCCCCCC(=O)NCCCCCC(=O)NCCCC[C@H](NC(=O)C[C@H](Cc1ccccc1)NC(=O)[C@@H]1CCC(=O)NCCCC[C@H](NC(=O)CC(C)C)C(=O)N[C@@H]([C@@H](C)O)C(=O)N[C@@H](Cc2c[nH]cn2)C(=O)N[C@@H](C(c2ccccc2)c2ccccc2)C(=O)N2CCC[C@H]2C(=O)N[C@@H](C)C(=O)N[C@@H]([C@@H](C)CC)C(=O)N1)C(N)=O
B11: Isovaleric Acid-K-T-H-[Dpa]-P-A-I-E-[Lys(Ahx_Palm)]-NH2 (peptide)
peptide: Isovaleryl-KTH[Dip]PAIEK([Ahx-Palmitoyl])-NH2
modifications: lactam 1-8
SMILES: CCCCCCCCCCCCCCCC(=O)NCCCCCC(=O)NCCCC[C@H](NC(=O)[C@@H]1CCC(=O)NCCCC[C@H](NC(=O)CC(C)C)C(=O)N[C@@H]([C@@H](C)O)C(=O)N[C@@H](Cc2c[nH]cn2)C(=O)N[C@@H](C(c2ccccc2)c2ccccc2)C(=O)N2CCC[C@H]2C(=O)N[C@@H](C)C(=O)N[C@@H]([C@@H](C)CC)C(=O)N1)C(N)=O
B12: Isovaleric Acid-K-T-H-[Dpa]-P-I-E-[bhPhe]-[Lys(Ahx_Palm)]-NH2 (peptide)
peptide: Isovaleryl-KTH[Dip]PIE[β3hF]K([Ahx-Palmitoyl])-NH2
modifications: lactam 1-7
SMILES: CCCCCCCCCCCCCCCC(=O)NCCCCCC(=O)NCCCC[C@H](NC(=O)C[C@H](Cc1ccccc1)NC(=O)[C@@H]1CCC(=O)NCCCC[C@H](NC(=O)CC(C)C)C(=O)N[C@@H]([C@@H](C)O)C(=O)N[C@@H](Cc2c[nH]cn2)C(=O)N[C@@H](C(c2ccccc2)c2ccccc2)C(=O)N2CCC[C@H]2C(=O)N[C@@H]([C@@H](C)CC)C(=O)N1)C(N)=O
B13: Isovaleric Acid-E-T-H-[Dpa]-P-A-I-K-[bhPhe]-[Lys(Ahx_Palm)]-NH2 (peptide)
peptide: Isovaleryl-ETH[Dip]PAIK[β3hF]K([Ahx-Palmitoyl])-NH2
modifications: lactam 1-8
B14: Isovaleric Acid-E-T-H-[Dpa]-P-A-I-K-[Lys(Ahx_Palm)]-NH2 (peptide)
peptide: Isovaleryl-ETH[Dip]PAIKK([Ahx-Palmitoyl])-NH2
modifications: lactam 1-8 (inferred)
B15: Isovaleric Acid-E-T-H-[Dpa]-P-I-K-[bhPhe]-[Lys(Ahx_Palm)]-NH2 (peptide)
peptide: Isovaleryl-ETH[Dip]PIK[β3hF]K([Ahx-Palmitoyl])-NH2
modifications: lactam 1-7 (inferred)
B16: Isovaleric Acid-E-T-H-[Dpa]-P-K-[bhPhe]-[Lys(Ahx_Palm)]-NH2 (peptide)
peptide: XETHXPKXX
modifications: N-term Isovaleric Acid; Dpa4; bhPhe7; Lys(Ahx_Palm)8; C-term NH2; cyclized E-K (lactam)
B17: Isovaleric Acid-E-T-H-[Dpa]-P-K-[Lys(Ahx_Palm)]-NH2 (peptide)
peptide: Isovaleryl-ETH[Dip]PKK([Ahx-Palmitoyl])-NH2
modifications: lactam 1-6 (inferred)
B18: Isovaleric Acid-Orn-T-H-[Dpa]-P-A-I-E-[bhPhe]-[Lys(Ahx_Palm)]-R-NH2 (peptide)
peptide: XXTHXPAIEXXR
modifications: N-term Isovaleric Acid; Orn1; Dpa4; bhPhe9; Lys(Ahx_Palm)10; C-term NH2; cyclized Orn-E (lactam)
B19: Isovaleric Acid-Dab-T-H-[Dpa]-P-A-I-E-[bhPhe]-[Lys(Ahx_Palm)]-R-NH2 (peptide)
peptide: XXTHXPAIEXXR
modifications: N-term Isovaleric Acid; Dab1; Dpa4; bhPhe9; Lys(Ahx_Palm)10; C-term NH2; cyclized Dab-E (lactam)
B20: Isovaleric Acid-K-T-H-[Dpa]-P-A-I-D-[bhPhe]-[Lys(Ahx_Palm)]-R-NH2 (peptide)
peptide: Isovaleryl-KTH[Dip]PAID[β3hF]K([Ahx-Palmitoyl])R-NH2
modifications: lactam 1-8
SMILES: CCCCCCCCCCCCCCCC(=O)NCCCCCC(=O)NCCCC[C@H](NC(=O)C[C@H](Cc1ccccc1)NC(=O)[C@@H]1CC(=O)NCCCC[C@H](NC(=O)CC(C)C)C(=O)N[C@@H]([C@@H](C)O)C(=O)N[C@@H](Cc2c[nH]cn2)C(=O)N[C@@H](C(c2ccccc2)c2ccccc2)C(=O)N2CCC[C@H]2C(=O)N[C@@H](C)C(=O)N[C@@H]([C@@H](C)CC)C(=O)N1)C(=O)N[C@@H](CCCNC(=N)N)C(N)=O
B21: Isovaleric Acid-Orn-T-H-[Dpa]-P-A-I-D-[bhPhe]-[Lys(Ahx_Palm)]-R-NH2 (peptide)
peptide: Isovaleryl-[Orn]TH[Dip]PAID[β3hF][Lys(Ahx_Palm)]R-NH2
modifications: lactam (positions not given here); not fully specified (bridges)
B22: Isovaleric Acid-Dab-T-H-[Dpa]-P-A-I-D-[bhPhe]-[Lys(Ahx_Palm)]-R-NH2 (peptide)
peptide: Isovaleryl-[Dab]TH[Dip]PAID[β3hF]K([Ahx-Palmitoyl])R-NH2
modifications: lactam 1-8
SMILES: CCCCCCCCCCCCCCCC(=O)NCCCCCC(=O)NCCCC[C@H](NC(=O)C[C@H](Cc1ccccc1)NC(=O)[C@@H]1CC(=O)NCC[C@H](NC(=O)CC(C)C)C(=O)N[C@@H]([C@@H](C)O)C(=O)N[C@@H](Cc2c[nH]cn2)C(=O)N[C@@H](C(c2ccccc2)c2ccccc2)C(=O)N2CCC[C@H]2C(=O)N[C@@H](C)C(=O)N[C@@H]([C@@H](C)CC)C(=O)N1)C(=O)N[C@@H](CCCNC(=N)N)C(N)=O
B23: Isovaleric Acid-Dap-T-H-[Dpa]-P-A-I-D-[bhPhe]-[Lys(Ahx_Palm)]-R-NH2 (peptide)
peptide: Isovaleryl-[Dap]TH[Dip]PAID[β3hF]K([Ahx-Palmitoyl])R-NH2
modifications: lactam 1-8
SMILES: CCCCCCCCCCCCCCCC(=O)NCCCCCC(=O)NCCCC[C@H](NC(=O)C[C@H](Cc1ccccc1)NC(=O)[C@@H]1CC(=O)NC[C@H](NC(=O)CC(C)C)C(=O)N[C@@H]([C@@H](C)O)C(=O)N[C@@H](Cc2c[nH]cn2)C(=O)N[C@@H](C(c2ccccc2)c2ccccc2)C(=O)N2CCC[C@H]2C(=O)N[C@@H](C)C(=O)N[C@@H]([C@@H](C)CC)C(=O)N1)C(=O)N[C@@H](CCCNC(=N)N)C(N)=O
B24: Isovaleric Acid-K-T-H-[Dpa]-P-A-I-E-[bhPhe]-NMe[Lys(Ahx_Palm)]-NH2 (peptide)
peptide: Isovaleryl-KTH[Dip]PAIE[β3hF][NMeK]([Ahx-Palmitoyl])-NH2
modifications: lactam 1-8
SMILES: CCCCCCCCCCCCCCCC(=O)NCCCCCC(=O)NCCCC[C@@H](C(N)=O)N(C)C(=O)C[C@H](Cc1ccccc1)NC(=O)[C@@H]1CCC(=O)NCCCC[C@H](NC(=O)CC(C)C)C(=O)N[C@@H]([C@@H](C)O)C(=O)N[C@@H](Cc2c[nH]cn2)C(=O)N[C@@H](C(c2ccccc2)c2ccccc2)C(=O)N2CCC[C@H]2C(=O)N[C@@H](C)C(=O)N[C@@H]([C@@H](C)CC)C(=O)N1

These binders were tested against T1, human ferroportin (SLC40A1) fused in … (assay: cell-based or functional assay).

Binder	FPN EC50 [nM]
B1	44.5
B2	429
B3	314
B4	175
B5	17.8
B6	23.9
B7	13.8
B8	25.9
B9	280

These binders were tested against T2, ferroportin endogenously expressed on … (assay: cell-based or functional assay).

Binder	T47D MSA IC50 [nM]
B1	1.88
B2	65.8
B3	13.3
B4	355
B5	5.97
B6	3.94
B7	1.74
B8	52.9
B9	289
B10	3.53
B11	31.2
B12	996
B13	2.14
B14	10.6
B15	25.5
B16	52.3
B17	144
B18	5.77
B19	5.53
B20	3.96
B21	35
B22	131
B23	733
B24	4.07
